From article PMC11915804, “In situ structures of the contractile nanomachine myophage Mu in both its extended and contracted states” (Journal of Virology, 2025) come the findings set out here.

B3: tube initiator protein gp43 (natural protein, phage Mu, UniProt P08557 1-495, looked up)
chain: MFEDALNAVNAVRDKTGGGRKTTGKGTFRNVPFLVIEEQKQAGGRRLVKREYPLRDTGGVNDLGKKLRSRTFSACILNSNAETARDEAGALMDALDAPGSGELVHPDFGTVDVMVDSWECRTKADELNYYAFTVTVYPSLQDTAPDAETDTSAAVPAQAVAVTGSLGDTLSSVWQTVKDGTAAATAVMEAVTGVIDDISDAVDNLGVTQTVSGLMGSLSAMKGSVTSLINQPAMLASSLMGALSGVSSLCDTRTAFSTWNRLAQRFERRHAATAGRQGTITTSYNSPVAEKNIATLNYVMLAAAQTYRAEAASQALTAALDFSRRMDNAARAPVLDAPSTTTGTASGASSTSATVTQGQLQLTAITPDGGFSQVSFSDSGTATPPVFESVSDIEKTTAMLGAALDSVILTASEQGFSTDSVQLTQLRLLVVADLEKRGLQLAGSESHHLPETLPAMVALYRFTGNSRNWQRLARRNGISNPLFVPGGVSIEVINE
notes: tube initiator protein gp43 (N protein, DNA circularization protein) of myophage Mu, as it stands in the virion; Hexamer; Model deposited here; also called N protein; DNA circularization protein; source: phage Mu virions grown on E. coli (ATCC 23724), purified (PEG 8000/NaCl precipitation, CsCl gradient)
B7: tail sheath protein gp39 (natural protein, phage Mu, UniProt P79678 1-495, looked up)
chain: MSDISFNAIPSDVRVPLTYIEFDNSNAVSGTPAPRQRVLMFGQSGSKASAAPNVPVRIRSGSQASAAFGQGSMLALMADAFLNANRVAELWCIPQGNGTGNAAVGEISLSGTAGENGSLVTYIAGQRLAVSVAAGATGAALADLLVARIKGQPDLPVTAEVRADSGDDDTHADVVLSAKFTGALSAVDVRWNYYAGETTPYGIITAFKAASGKNGNPDISASIAGMGDLQYKYIVMPYTDEPNLNLLRTELQERWGPVNQADGFAVTVLSGTYGDISTFGVSRNDHLISCMGIAGAPEPSYLYAATLCAVASQALSIDPARPLQTLTLPGRMPPAVGDRFTWSERNALLFDGISTFNVNDGGEMQIERMITMYRTNKYGDSDPSYLNVNTIATLSYLRYSLRTRITQKFPNYKLASDGTRFATGQAVVTPSVIKTELLALFEEWENAGLVEDFDTFKEELYVARNKDDKDRLDVLCGPNLINQFRIFAAQVQFIL
notes: tail sheath protein gp39 of myophage Mu, as it stands in the virion; Hexameric rings, 30 of them stacked in the tail; Model deposited here; source: phage Mu virions grown on E. coli (ATCC 23724), purified (PEG 8000/NaCl precipitation, CsCl gradient)

What all share (test): cryo-EM structure; purified phage Mu virions in the extended state (native phage) in phage buffer (10 mM MgCl2, 5 mM NaCl, 10 mM Tris-HCl, pH 7.4); icosahedral, symmetry-mismatch and local reconstruction; 3.2 Å (3-fold capsid), 3.4 Å (portal-adaptor), 3.5 Å (terminator-tail), 3.3 Å (baseplate)
Data set [1] concerns the target tape measure protein (TMP) gp42 (phage Mu).
Data set [2] concerns the target tail terminator protein gp37 (phage Mu).
Data set [3] concerns the target adaptor protein gp36 (phage Mu).
In data set [4] the target is major capsid protein (MCP) gp34 (phage Mu).
The target of data set [5] is B3. The following applies: both partners purified.
Data set [6] deals with the molecule itself.
The data set “tail sheath protein gp39” addresses B7. The following applies: both partners purified.

For orientation: stoichiometry N means the number of molecules, sites or subunits per partner or assembly. Turning to “tape measure protein (TMP) gp42 (natural protein)”, the stoichiometry N in data set [1] turned out to be 3. The molecule “tail terminator protein gp37 (natural protein)” displayed a stoichiometry N in data set [2] of 6. In data set [3], adaptor protein gp36 (natural protein) came in with a stoichiometry N of 12. As to “major capsid protein (MCP) gp34 (natural protein)”, in data set [4], the stoichiometry N came to 415.

B1: baseplate wedge protein 2 (BW2) gp47 (natural protein, phage Mu, UniProt Q9T1V2 1-360, looked up)
chain: MAYSPPTLSSLIARTEQNIEQRLPGSWPQAREKTLSAIAYAQAGLAAGCHEHISWVGRQIIPSTADEDELLEHCRFWGVRRKQATAASGPLTVTTSAATTIPAGTRWQRADGVVYSLADTIVIDRAGTTEITVTALAAGEAGNTGENTLLTLITPVACVVSDAITVKGFSGGADIESAAELLSRLEYRVQYPPFGGNQFDYVRWAREVSGVTRAWCFPTWKGGGTVGVTFVMDNRSNIFPQPADVERVADYIAGHTDPITGLIVGQPDGVNVTVFAPKAKPVNPRIYISPKTAELKQAITNAINTMFFNEVMPGGALAPSRIIRAVAGVTGLDDFEVRFPTEIQRSENTELLTAGTIEWL
notes: baseplate wedge protein 2 gp47 of myophage Mu, as it stands in the virion; Two conformers (BW2-i, BW2-o) in each of the six wedges; Model deposited here; also called BW2-i; BW2-o; source: phage Mu virions grown on E. coli (ATCC 23724), purified (PEG 8000/NaCl precipitation, CsCl gradient)
Consider B1, for which the binding result in data set [5] and in data set [6] was “binds” in each case.

B2: G(+) type fiber protein gp49 (natural protein, phage Mu, UniProt Q9T1V0 1-504, looked up)
chain: MFYIDNDSGVTVMPPVSAQRSAIVRWFSEGDGNNVITWPGMDWFNIVQAELLNTLEEAGIQPDKTKLNQLALSIKAIMSNNALLIKNNLSEIKTAGASAQRTARENLDIYDASLNKKGLVQLTSATDSPSETLAATAKAVKIAMDNANARLAKDRNGADIPNKPLFIQNLGLQETVNRARNAVQKNGDTLSGGLTFENDSILAWIRNTDWAKIGFKNDADSDTDSYMWFETGDNGNEYFKWRSKQSTTTKDLMNLKWDALSVLVNAIVNGEVISKSANGLRIAYGNYGFFIRNDGSNTYFMLTNSGDNMGTYNGLRPLWINNATGAVSMGRGLNVSGDTLSDRFAINSSNGMWIQMRDNNAIFGKNIVNTDSAQALLRQNHADRKFMIGGLGNKQFGIYMINNSRTANGTDGQAYMDNNGNWLCGAQVIPGNYANFDSRYVRDVRLGTQSLTGGLSRDYKAPSGHVITGFHTNGDWEMQGGDDKVYIRPVQKNINGTWYNVASA
notes: G(+) type tail fiber protein gp49 of myophage Mu, as it stands in the virion; only the N-terminus was modelled; Trimer; six fibers in the baseplate; Model deposited here; source: phage Mu virions grown on E. coli (ATCC 23724), purified (PEG 8000/NaCl precipitation, CsCl gradient)
For B2, the “stoichiometry N” value in data set [6] was 3.

Consider B3, for which, in data set [6], the “stoichiometry N” value was 6.

B4: portal protein gp29 (natural protein, phage Mu, UniProt Q9T1W5 1-512, looked up)
chain: MGRILDISGQPFDFDDEMQSRSDELAMVMKRTQEHPSSGVTPNRAAQMLRDAERGDLTAQADLAFDMEEKDTHLFSELSKRRLAIQALEWRIAPARDASAQEKKDADMLNEYLHDAAWFEDALFDAGDAILKGYSMQEIEWGWLGKMRVPVALHHRDPALFCANPDNLNELRLRDASYHGLELQPFGWFMHRAKSRTGYVGTNGLVRTLIWPFIFKNYSVRDFAEFLEIYGLPMRVGKYPTGSTNREKATLMQAVMDIGRRAGGIIPMGMTLDFQSAADGQSDPFMAMIGWAEKAISKAILGGTLTTEAGDKGARSLGEVHDEVRREIRNADVGQLARSINRDLIYPLLALNSDSTIDINRLPGIVFDTSEAGDITALSDAIPKLAAG
notes: portal protein gp29 of myophage Mu, as it stands in the virion; Dodecamer; Model deposited here; source: phage Mu virions grown on E. coli (ATCC 23724), purified (PEG 8000/NaCl precipitation, CsCl gradient); copies: 12
Regarding B4, the “stoichiometry N” value in data set [6] turned out to be 12.

B5: tail tube protein gp40 (natural protein, phage Mu, UniProt P79679 1-118, looked up)
chain: MAGNQRQGVAFIRVNGMELESMEGASFTPSGITREEVTGSRVYGWKGKPRAAKVECKIPGGGPIGLDEIIDWENITVEFQADTGETWMLANAWQADEPKNDGGEISLVLMAKQSKRIA
notes: tail tube protein gp40 of myophage Mu, as it stands in the virion; Hexameric rings, 30 of them stacked in the tail; Model deposited here; source: phage Mu virions grown on E. coli (ATCC 23724), purified (PEG 8000/NaCl precipitation, CsCl gradient)
On to B5, for which the binding result with tail sheath protein gp39 was “binds”. Further, in data set [6], the “stoichiometry N” value came out at 6.

B6: hub protein gp44 (natural protein, phage Mu, UniProt P08558 1-379, looked up)
chain: MSNTVTLRADGRLFTGWTSVSVTRSIESVAGYFELGVNVPPGTDLSGLAPGKKFTLEIGGQIVCTGYIDSRRRQMTADSMKITVAGRDKTADLIDCAAVYSGGQWKNRTLEQIARDLCAPYGVTVRWELSDKESSAAFPGFTLDHSETVYEALVRASRARGVLMTSNAAGELVFSRAASTATDELVLGENLLTLDFEEDFRDRFSEYTVKGYARANGAEGDDIDAKSIVSRKGTATDSDVTRYRPMIIIADSKITAKDAQARALREQRRRLAKSITFEAEIDGWTRKDGQLWMPNLLVTIDASKYAIKTTELLVSKVTLILNDQDGLKTRVSLAPREGFLVPVESDRKNRKGGDSNGGIDALVEDYYRRHPEKTPPWKE
notes: baseplate hub protein gp44 of myophage Mu, as it stands in the virion; Trimer; Model deposited here; source: phage Mu virions grown on E. coli (ATCC 23724), purified (PEG 8000/NaCl precipitation, CsCl gradient)
For the molecule B6, the “stoichiometry N” value in data set [6] was 3. On the same count and under the same terms, next, B7: 6.
